Earlier results as cited in publication PMC8799529.

Biological target: p38 MAPK (Homo sapiens) (UniProt Q16539)
Chain of UniProt Q16539 (Q16539 2-360): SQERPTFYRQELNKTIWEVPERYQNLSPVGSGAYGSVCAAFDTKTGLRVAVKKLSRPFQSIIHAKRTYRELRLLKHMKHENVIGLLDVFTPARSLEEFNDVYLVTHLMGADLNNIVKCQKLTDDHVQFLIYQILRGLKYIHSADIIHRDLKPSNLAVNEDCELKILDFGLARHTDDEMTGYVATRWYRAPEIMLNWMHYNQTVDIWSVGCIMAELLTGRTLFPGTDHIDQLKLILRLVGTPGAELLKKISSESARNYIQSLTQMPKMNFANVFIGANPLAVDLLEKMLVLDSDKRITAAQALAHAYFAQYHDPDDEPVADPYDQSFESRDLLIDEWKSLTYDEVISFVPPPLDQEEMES

For MK2 (from UniProt P49137), the Kd is listed as 2.5 nM.
